Reference: ChEMBL document CHEMBL2074521, “Partial purification and reconstitution of the human multidrug-resistance pump: characterization of the drug-stimulatable ATP hydrolysis” (Proc Natl Acad Sci U S A, 1992)

Tested on: COc1cc2c(c(OC)c1OC)-c1ccc(OC)c(=O)cc1[C@@H](NC(C)=O)CC2
Experiment: TP_TRANSPORTER: ATP hydrolysis in reconstituted proteoliposomes
Format: functional, subcellular

For “ATP-dependent translocase ABCB1 (Homo sapiens)”, which Km is on record?
The Km was 45 µM.
